{
  "source": "patent US20210061908A1",
  "about": "(IOMX THERAPEUTICS, published 2021)",
  "binders": {"B1": {"name": "A-003 (scFv format) (scFv, V domains shown)", "VH": "VQLVQSGAEVKKPGSSVKVSCKASGGTFSSYAISWVRQAPGQGLEWMGGIIPIFGTANYAQKFQGRVTITADESTSTAYMELSSLRSEDTAVYYCASPRIQLWAAGGFDYWGQGTLVTVSS", "VL": "QSALTQPASVSGSPGQSITISCTGTSSDVGGYNLVSWYQQHPGKAPKLMIYDVSNRPSGVSNRFSGSKSGNTASLTISGLQAEDEADYYCSSFTTSTTLVFGGGTKLTVL", "notes": "scFv"}, "B2": {"name": "A-026 (scFv format) (scFv, V domains shown)", "VH": "QVQLQESGPGLVKPSQTLSLTCTVSGGSISSGGYYWSWIRQHPGKGLEWIGYIYYSGSTYYNPSLKSRVTISVDTSKNQFSLKLSSVTAADTAVYYCASWSLGTSNHGWFDPWGQGTLVTVSS", "VL": "QSVLTQPPSASGTPGQRVTISCSGSSSNIGSNTVNWYQQLPGTAPKLLISDNNNRPSGVPDRFSGSKSGTSASLAITGLQAEDEADYYCQSYDSNLSGWVFGGGTKLTVL", "notes": "scFv"}, "B3": {"name": "A-023 (scFv format) (scFv, V domains shown)", "VH": "QVQLVQSGAEVKKPGSSVKVSCKASGGTFSSYAISWVRQAPGQGLEWMGGIIPIFGTANYAQKFQGRVTITADESTSTAYMELSSLRSEDTAVYYCARPKYSSGWFYYYGMDVWGQGTTVTVSS", "VL": "QSVLTQPPSVSAAPGQKVTISCSGSSSNIGNNYVSWYQQLPGTAPKLLIYDNNKRPSGIPDRFSGSKSGTSATLGITGLQTGDEADYYCGTWDSSLSVVFGGGTKLTVL", "notes": "scFv"}, "B4": {"name": "A-022 (scFv format) (scFv, V domains shown)", "VH": "EVQLLESGPGLVKPSQTLSLTCTVSGGSISSGGYYWSWIRQHPGKGLEWIGYIYYSGSTYYNPSLKSRVTISVDTSKNQFSLKLSSVTAADTAVYYCARASRSTDYYFDYWGQGTLVTVSS", "VL": "QPGLTQPPSMSYGLGQTATLTCTGNRNNIGDQGAAWLQQHQGHPPKLLSYRNNNGPSGISERLSASRSGNTASLTISGLQPEDEADYYCSAWDSSLRAWVFGGGTKLTVL", "notes": "scFv"}, "B5": {"name": "A-016 (scFv format) (scFv, V domains shown)", "VH": "QVQLQESGAEVKKPGASVKVSCKASGYTFTGYYMHWVRQAPGQGLEWMGGIIPIFGTANYAQKFQGRVTITADESTSTAYMELSSLRSEDTAVYYCAGAGMELTRSGAYYYYGMDVWGQGTTVTVSS", "VL": "QSALTQPASVSGSPGQSITISCTGTSSDIGGYTFVSWYQQHPGKAPKVMIHDVNNRPSGISNRFSGSKSGNTASLTISGLQAEDEADYYCSSVTSTNTYVFGTGTKVTVL", "notes": "scFv"}, "B6": {"name": "A-028 (scFv format) (scFv, V domains shown)", "VH": "QVQLVQSGAEVKKPGSSVKVSCKASGGTFSSYAISWVRQAPGQGLEWMGGIIPIFGTANYAQKFQGRVTITADESTSTAYMELSSLRSEDTAVYYCARVGVEYQLLWYFDYWGQGTLVTVSS", "VL": "DIQMTQSPSSLSASVGDRVTLTCRTSQTISNYLNWYQQKPGKAPKLLVYAASNLQSWVPSRFSGSGSGTDFTLTISSLQPEDFATYYCQQSYNASFGGGTKVEFK", "notes": "scFv"}, "B7": {"name": "A-014 (scFv format) (scFv, V domains shown)", "VH": "QVQLVQSGAEVKKPGASVKVSCKASGYTFNDYYIHWVRQAPGQGLEWMGWFNPSTGGANYAQKFQGRVTMTRDTSISTAYLEVSSLRSDDTAVYYCARGNSPDLDYWGQGTLVTVSS", "VL": "DIQMTQSPDSLTVSLGERATINCKSSQSLLHSSNNKNYLAWYQQRPGQPPKLLIYWASTRQSGVPDRFSGSGSGTDFTLTINSLQADDMAVYYCQQYYTTTPNTFGQGTKLEIK", "notes": "scFv"}, "B8": {"name": "A-025 (scFv format) (scFv, V domains shown)", "VH": "QVQLVQSGAEVKKPGSSVKVSCKASGGTFSSYAISWVRQAPGQGLEWMGGIIPIFGTANYAQKFQGRVTITADESTSTAYMELTSLRSEDTAVYYCARGGWLRQNWFDPWGQGTLVTVSS", "VL": "SSELTQDPAVSVALGQTVRITCQGDSLRSYYASWYQQKPGQAPVLVIYGKNNRPSGIPDRFSGSSSGNTASLTITGAQAEDEADYYCNSRDSSGNHPRVFGGGTKLTVL", "notes": "scFv"}, "B9": {"name": "A-017 (scFv format) (scFv, V domains shown)", "VH": "QVQLVQSGAEVKKPGASVKVSCKASGYTFTGYYMHWVRQAPGQGLEWMGWINPNSGNTGYAQKFQGRVTMTRNTSISTAYMELSSLRSEDTAVYYCARGGQQQLVLDDYWGQGTLVTVSS", "VL": "DIVLTQSPASLSASVGDRITITCQASQDIRHHLNWFQHKPGKAPKLLISDSSNLETGVPSRFSGSGSGTDFSFTISRLQPEDIATYYCQQYDSLPRTFGQGTKLEIK", "notes": "scFv"}, "B10": {"name": "A-019 (scFv format) (scFv, V domains shown)", "VH": "B9 VH", "VL": "not shown", "notes": "scFv"}, "B11": {"name": "A-015 (scFv format) (scFv, V domains shown)", "VH": "not shown", "VL": "QPVLTQSPSASASLGASVKLTCTLSSGHTNYAIAWRQQQPGKAPRYLMLLNSDGSHTRGGGIPDRFSGSSSGAERYLTISSLQSEDEADYYCMIWHNNAWVFGGGTKLAVL", "notes": "scFv"}, "B12": {"name": "A-010 (scFv format) (scFv, V domains shown)", "VH": "QVQLVQSGAEVKKPGASVKVSCKASGYTFTSYGISWVRQAPGQGLEWMGWISAYNGNTNYAQKLQGRVTMTTDTSTSTAYMELRSLRSDDTAVYYCARVPAWSGQFDYWGQGTLVTVSS", "VL": "QSALTQPASVSGSPGQSITISCTGSSSDVGGYNYVSWYQQYPGKAPKLMIYDVRSRPSGVSNRFSGSKSGNTASLTISGLQAEDEADYYCTSYTSSNTLVIFGGGTKVTVL", "notes": "scFv"}, "B13": {"name": "A-021 (scFv format) (scFv, V domains shown)", "VH": "B12 VH", "VL": "QSALTQPASVSGSPGQSITISCTGTSSDVGGYNYVSWYQQHPGKAPKLMIYEVTNRPSGVSDRFSGSKSANTASLTISELQAEDEAVYYCNSYTSGPTYVLFGGGTQLTVL", "notes": "scFv"}, "B14": {"name": "A-024 (scFv format) (scFv, V domains shown)", "VH": "QMQLVQSGAEVKKPGSSVKVSCKASGGTFSSYAISWVRQAPGQGLEWMGWISAYNGNTNYAQKLQGRVTMTTDTSTSTAYMELRSLRSDDTAVYYCASLGSYGYTGAFDIWGQGTMATVSS", "VL": "B12 VL with S25T, Y41H, D52E, R54S, S55N, T91S, N97S, I101V, V108L"}, "B15": {"name": "A-027 (scFv format) (scFv, V domains shown)", "VH": "QVQLVQSGAEVKKPGSSVKVSCKASGGTFSSYAISWVRQAPGQGLEWMGGIIPIFGTANYAQKFQGRVTITADKSTSTAYMELSSLRSEDTAVYYCARARGSTWGYFDYWGQGTLVTVSS", "VL": "EIVLTQSPASLSLSPGERVTLSCRASQSVSNYLAWYQQKPGQAPRLLIYDASNRATGIPARFSGSGSGTDFTLTISSLEPEDFAVYYCQQRDNWPLTFGGGTKVEIK", "notes": "scFv"}, "B16": {"name": "A-011 (scFv format) (scFv, V domains shown)", "VH": "QVQLVESGGGVVQPGRSLRLSCAASGFTFSSYAMHWVRQAPGKGLEWVAVISYDGSNKYYADSVKGRFTISRDNSKNTLYLQMNSLRAEDTAVYYCAEGGALNYYGMDVWGQGTTVTVSS", "VL": "SSELTQDPGVSVALGQTVRITCQGDSLRHFYATWYQQKPGQAPILVIYGKNNRPSGIPDRFSGSSSEDTASLTITGAQAEDEADYYCQSRDPRNNHLIFGGGTKLIVL", "notes": "scFv"}, "B17": {"name": "A-029 (scFv format) (scFv, V domains shown)", "VH": "QVQLVQSGAEVKKPGSSVKVSCKASGGTFSSYAISWVRQAPGQGLEWMGGIIPIFGTANYAQKFQGRVTITADESTGTAYMELSSLRSEDTAVYYCARSYYYYYGMDVWGQGTTVTVSS", "VL": "not shown", "notes": "scFv"}},
  "note": "Changes are numbered by the printed parent chain.",
  "data": [
    {"target": "T1, extracellular domain (ECD) of human IGSF11 (VSIG3), biotinylated (human, UniProt Q5DX21 23-241, biotinylated (site not stated))", "T1 construct": "also called human IGSF11 protein", "T1 sequence": "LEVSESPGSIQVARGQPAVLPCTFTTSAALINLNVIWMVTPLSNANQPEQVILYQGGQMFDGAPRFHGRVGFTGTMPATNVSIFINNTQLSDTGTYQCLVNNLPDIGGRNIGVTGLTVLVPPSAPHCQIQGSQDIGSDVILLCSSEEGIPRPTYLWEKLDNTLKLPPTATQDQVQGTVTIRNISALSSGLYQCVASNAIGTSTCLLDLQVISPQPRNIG", "assay": "ELISA, scFv; RFU grade (*** >1.0, ** 0.5-1.0, * 0.1-0.5)", "units": {"relative fluorescent units (RFU), ELISA": "rfu"}, "values": [
      {"binder": "B1", "relative fluorescent units (RFU), ELISA": "0.1 to 0.5"},
      {"binder": "B2", "relative fluorescent units (RFU), ELISA": "> 1"},
      {"binder": "B3", "relative fluorescent units (RFU), ELISA": "0.5 to 1"},
      {"binder": "B4", "relative fluorescent units (RFU), ELISA": "0.5 to 1"},
      {"binder": "B5", "relative fluorescent units (RFU), ELISA": "> 1"},
      {"binder": "B6", "relative fluorescent units (RFU), ELISA": "0.1 to 0.5"},
      {"binder": "B7", "relative fluorescent units (RFU), ELISA": "0.5 to 1"},
      {"binder": "B8", "relative fluorescent units (RFU), ELISA": "0.1 to 0.5"},
      {"binder": "B9", "relative fluorescent units (RFU), ELISA": "0.5 to 1"},
      {"binder": "B10", "relative fluorescent units (RFU), ELISA": "> 1"},
      {"binder": "B11", "relative fluorescent units (RFU), ELISA": "0.5 to 1"},
      {"binder": "B12", "relative fluorescent units (RFU), ELISA": "0.5 to 1"},
      {"binder": "B13", "relative fluorescent units (RFU), ELISA": "0.5 to 1"},
      {"binder": "B14", "relative fluorescent units (RFU), ELISA": "0.5 to 1"},
      {"binder": "B15", "relative fluorescent units (RFU), ELISA": "0.1 to 0.5"},
      {"binder": "B16", "relative fluorescent units (RFU), ELISA": "0.1 to 0.5"},
      {"binder": "B17", "relative fluorescent units (RFU), ELISA": "0.1 to 0.5"}
    ]},
    {"target": "T2, extracellular domain (ECD) of murine IGSF11, biotinylated (mouse, UniProt P0C673 23-240, biotinylated (site not stated))", "T2 construct": "also called Mouse IGSF11; murine IGSF11 protein", "T2 sequence": "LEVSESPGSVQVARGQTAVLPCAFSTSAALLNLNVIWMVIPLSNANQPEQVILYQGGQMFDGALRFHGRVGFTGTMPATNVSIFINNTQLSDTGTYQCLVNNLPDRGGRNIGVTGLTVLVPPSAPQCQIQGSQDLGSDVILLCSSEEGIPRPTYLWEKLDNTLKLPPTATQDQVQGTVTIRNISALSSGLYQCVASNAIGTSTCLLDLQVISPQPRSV", "assay": "ELISA, scFv; RFU grade (*** >1.0, ** 0.5-1.0, * 0.1-0.5)", "units": {"relative fluorescent units (RFU), ELISA": "rfu"}, "values": [
      {"binder": "B1", "relative fluorescent units (RFU), ELISA": "0.1 to 0.5"},
      {"binder": "B2", "relative fluorescent units (RFU), ELISA": "> 1"},
      {"binder": "B3", "relative fluorescent units (RFU), ELISA": "0.1 to 0.5"},
      {"binder": "B4", "relative fluorescent units (RFU), ELISA": "> 1"},
      {"binder": "B5", "relative fluorescent units (RFU), ELISA": "0.5 to 1"},
      {"binder": "B6", "relative fluorescent units (RFU), ELISA": "0.1 to 0.5"},
      {"binder": "B7", "relative fluorescent units (RFU), ELISA": "0.1 to 0.5"},
      {"binder": "B8", "relative fluorescent units (RFU), ELISA": "0.1 to 0.5"},
      {"binder": "B9", "relative fluorescent units (RFU), ELISA": "0.1 to 0.5"},
      {"binder": "B10", "relative fluorescent units (RFU), ELISA": "0.5 to 1"},
      {"binder": "B11", "relative fluorescent units (RFU), ELISA": "0.5 to 1"},
      {"binder": "B12", "relative fluorescent units (RFU), ELISA": "0.5 to 1"},
      {"binder": "B13", "relative fluorescent units (RFU), ELISA": "0.1 to 0.5"},
      {"binder": "B14", "relative fluorescent units (RFU), ELISA": "0.1 to 0.5"},
      {"binder": "B15", "relative fluorescent units (RFU), ELISA": "0.1 to 0.5"},
      {"binder": "B16", "relative fluorescent units (RFU), ELISA": "> 1"},
      {"binder": "B17", "relative fluorescent units (RFU), ELISA": "0.1 to 0.5"}
    ]}
  ]
}
